Data from the nanobody polyreactivity screen of Harvey et al. (2022).

test: yeast display, Sf9 membrane polyspecificity reagent, FACS + sequencing; frameworks hold sequencing errors
How it was run: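 Galactose induction of a Saccharomyces cerevisiae BJ5465 synthetic nanobody display library ran 36–48 hours. The cells were then stained for 1 hour at 4 °C with 10% biotinylated, detergent-solubilized Sf9 membrane reagent, pulled down on streptavidin microbeads and FACS-sorted into low and high (top ~1%) gates on expression and reagent-binding fluorescence. Labels for polyreactivity follow the gate of origin.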

Row | Sequence | polyreactivity (PSR sort gate)
1 | QVQLVESGGGLVQAGGSLRLSCAASGRIFYRYAMGWYRQAPGKERELVASIRFSDGSTYYADSVKGRFTISRDNAKNTVYLQMNSLKPEDTALYYCAARPLRSRNGYYWGQGTQVTVSS | high polyreactivity
2 | QVQLVESGGGLVQAGGSLRLSCAASGRIFAQYAMGWYRQAPVKERELVAGIDRRGGSTYYADSVKGRFTISRDNAKNTVYLQMNSLKPEDTAVYYCAAYGTTGVYRGPGYDYWGQATQVTVSS | low polyreactivity
3 | QVQLVESGGGLVQAGGSLRLSCAASGRILKRYAMGWYRQAPGKERELVAAINWSGGSTYYADSVKGRFTISRDNAKNTVYLQMTSLKPEDTAVYYCAADSWPFGYYYWGQGTQVTVSS | high polyreactivity
4 | QVQLVESGGGVGQAGGSLRLSCAASGSNFKYYAMGWYRPAPGKERELVAVITSGGSTYYADSVKGRFTISRDNAKNTVYLQMNSLKPEDTAVYDCAAGVRAYNWGEYDYWGQGTQVTVSS | low polyreactivity
5 | PVQLVESGGGLVQAGGSLRLICAASGRIFEINAMGWYRQAPGKERELFAAITRGGRTYYADSVKGRFTSSRDNAMNTVYLQMTSLKPEDTAVYYCAAYGHIRSGFDCVDYWGQGTQVTVSS | high polyreactivity
6 | QVQLVESGGGLVQAGGSLRLSCAASGSTLDLYAMGWYRQAPGKEREFVASISWSGGSTYYADSVKGRFTISRDNAKNTVYLQMNRLKPEDTAVYYCAADLVIRGSLYVSSWYDYWGQGSQVTVSS | low polyreactivity
7 | QVQLVESGGGLVQEGGSLRLSCAASGSIFNTYAMGRYRQAPGKEREMVAGITKTGSRTYYADSVKGRFTISRDNAKNTVYLQMNSLKPEDTAVYYCNARIWPRSYRYDYWGQGTQVTVSS | high polyreactivity
8 | QVQLVESGGGLVQAGGSLRLSCAASGSTFYTNAMGWYRQAPGTERELVAAINYSGGSTYYADSVKGRFTISRDNAKNTVYLQMNSQTPEDTAVYYCATDLHWLVTKYGYWGQGTQVTVSS | low polyreactivity
9 | QVQLVESGGGLVQAGGSLRLSCAASGNTIIRYPMGWYRQAPGKERELVAAISYSGGRTYYADSVKGRFTISRDNAKNTVYLQMNSLKPEDTAVYYCNAASRYGGDYWGQGTQVTVSS | high polyreactivity
10 | QVQLVESGGGLVQAGGSLRLSCAASGFIFSRYSMGWYRQAPGKERELVAGITSRGGITYYADSVKGRFTISRDNAKNTVYLQMNSLIPEDTAVYYCNAGKSLSKSFDYWGQGTQVTVSS | high polyreactivity
11 | QVQLVESGGGLVQAGGSLRLSCAASGRIFDYYAMGWYRQAPGKERELVAAITSSTGSTYYADSVKGRFTISRDNAKNTVYLQMNSLKPEDTAVYYCAAERTYLDRGFDYWGQGTQVTVSS | low polyreactivity
12 | QVQLVESGGGLVQAGGSLRLSCAASGFTFRVYAMGWYRHAPGKERELVAAITKRGGSTYYADSVKGRFTISRDNAKNTVYLQMNSLKPEDTAVYYCAAVNVRHFSYWGQGTQVTVSS | high polyreactivity
13 | QVQLVESGGGLVQAGGSLRLSCAASGFTFSTNAMAWYRQAPGKERELVAAITSSGGSTYYADSVKGRFTISRDNAKNTVYLQMNSLKPEDTAVYYCATGPSQVGGDYWGQGTQVTVSS | high polyreactivity
14 | QVQLVESGGGLVQAGGSLRLSCASSGRIFNGNTMGWYRQAPGKERELVAGITGSSGSTYYADSVKGRFTISRDNANNSVYLPMNSLKPEDTGVYYCAAGRRYRCVGYGYWGQGTQVTVSS | high polyreactivity
15 | QVQLVESGGGLVQAGGSLRLSCAASGSTFYIYAMGWYRQATGKERELVARITRGGTTYADSEKGRFTISRDNAKNTVYLQMNSLKPEDTAVYYCNAASKTTRYYQAFYSGGGYWGQGTQVTVSS | high polyreactivity
16 | QVQLVESGGGLVQAGGSLRLSCAASGRTFVYYAMGWYRQAPGTERELVAAISTGGSTNYADSVKGRFTISRDNAKNSVYLQMNSLKPEDTAVYYCAAQYYISISKYDYWGQGTQVTVSS | low polyreactivity

Row | Sequence | polyreactivity (PSR sort gate)
17 | QVQLVESGGGLVQAGGSLRLSCAASGRIFRSYAMGWYRQAPGKERELVADISISGGRTYYADSVKGRFTISRDNAKNTVYLQMNSLKPEDTAVYYCAARTYDRNRQLRRQWYDYWGQGTQVTVSS | high polyreactivity
18 | QVQLVESGGGLVQAGGSLRLSCAASGFIFSRYAMGWYRQAPGKVRELVASISWGGGSTSYADSVKGRFTISRDNAKNTVYLQMNSLKPEDTAVYYCNARVRSHRFNYWGQGTQVTVSS | high polyreactivity
19 | QDQLGDSGGGLVQAGGSLRLSCAASGSTYSVYTMGWYRQAPGKERELVAGITSNAGSTYYADSVKGRFTISRDNAMNTVYLEMNRLKPEDTAVYYCNADRWVRTTYDYWGQGTQVTVSS | high polyreactivity
20 | QVQLVESGGGLVQAGGSLRLSCAASGFTFSRYAMGWYRQAPGKERELVAAISYSGGRTYYADSVKGRFTISRDNAKNTVYLQMNSLKPEDTAVYYCNATWQSGHGWGQGTQVTVSS | high polyreactivity
21 | QVQLVESGGGLVQAGGSLRLSCAASGYTIYYYAMGWYRQAPGKERELVARITSGGSTYYADSVKGRFTISRDNAKNTVYLQMNSLKPVDTAVYYCNVEVSVEVAYWGQGTQVTVSS | low polyreactivity
22 | QVHLVESGGGLVQAGGSLRLSCAASGSIFDVNAMGWYRQAPGKERQLVAAISDSGGSTYYADSVKGRFTISRDNAKNTVYLQMNSLKPEDTAVYYCNADWSSYNYYDFDYWGQGTQVTVSS | low polyreactivity
23 | QVPLVESGGGLVQAGGSLRLSCAAYGFTFWTYAMGWYRQAPGKDRELVAAISRSAGRTYYADSVKGRFTISRDNAKNTVYLQMNSLKPEVSAVYYCNARAGYERYGYWGQGSQVTVSS | high polyreactivity
24 | QVQLVESGGGLVQAGGSLRLSCAASGSIFPPYTMGWFRQAPGKELELVATISSTGITNYADSVKGRFTNSRDNAKNTVYLQMNSLKQEDTAVYYCAAGLWYSFDYWGQGTQVTVSS | high polyreactivity
25 | QVQLVESGGGLVQAGGSLRLSCAASGSIFLVNAKGWYRQAPGKERELVAAITWIGGSTYYADSVKGRFTISRDNAKNTVYLQMNSLKPEDTAVYYCAAYGKRLGGGGYYWGQGTQVTVSS | high polyreactivity
26 | QVQLVESGGGLVPAGGSLRLSCAASGSIFVKYALGRYRPAPGKERELVAAISRSGTRTYYADSVKGRFTISRDNAKNTVYLQMNSLKPEDTAVYYCAAAATTVRPYEYWGQGTQVTVSS | high polyreactivity
27 | QVQLVESGGGLVQAGGTLRLICAASGSIFGYYTMGWYRQASGKERELVAAITSGGSTNYADSVKGRFTISRDNAKNTVYLQMNSLKPEDTAVYYCATVSYYPWRYDYWGQGTQGTVSS | low polyreactivity
28 | QVQLVESGGGLVQAGGSLRLSCAASGRSFSPYAMGWYRQAPGKERELVAAISYDDGITYYADSVKGRFTISRDTAKNTVYLQMNSLKPEDTAVYYCAADSVTRPAGDYWGQGTQVTVSS | low polyreactivity
29 | QVQLVESGGGLVQAGGSLRLSCADSGHIFFYYTMGWYRQAPGKEREMVAGITIGGSTNYADSVKVRFTISRDNAKNTVYLQMNSLKPEDTAVYYCNVVKYVYIYSYSEYYYWGQGTQVTVSS | low polyreactivity
30 | QVQLVESGGGLVQAGGSLRLSCAASGITFPANAMGWYRQAPGKQWELVAAISSYGGSTYYADSVKGRFTISRDNEKNTVDLQMNSLKPEDTAVYYCAAYLSSLGRKYYYWGQGTQVTVSS | high polyreactivity
31 | QVQLVESVGGLVQAGGSLRLSCAASGRMFAKYAMGWYRQAPGKERELVPISSSVGRTYYADSVKGRFTISRDNAKNTVSLHMHSLKPEDTAVYYCNAKPRWYVPYDYSGQGTQVTVSS | high polyreactivity
32 | QVQLVESGGGLVQAGGSLRLSCAASGRIFGWYDMGWYRQAPGKERELVAAISYNGARTYYADSVKGRFTISRDNAKNTVYLQMNSLKPEDTAVYYCARRYYSQYDYWGQGTQVTVSS | high polyreactivity
